Target: the molecule itself
Experiment: crystal structure; apo form, 2.15 Å, space group P32, 6 monomers in the asymmetric unit; crystals from 0.2 M MgCl2, 0.1 M sodium citrate tribasic dihydrate pH 5, 10% w/v PEG, BME added; data at 100 K

B1: Nmar_1308 protein, bifunctional crotonyl-CoA hydratase (CCAH) and 3-hydroxypropionyl-CoA dehydratase (3HPD) from Nitrosopumilus maritimus SCM1 (enzyme)
chain: MSLVTTSTSDGICTVKINRPDKLNAMNTDVAKELIKTFEELNHNDDVKVIILTGEGEKAFSAGADIEYMSKISADESVEYAKTGQLVTATVELVKQPTIAAVNGFALGGGCELAMSCDIRIAADTAKLGQPEVTIGVPPGWGGTQRLMRIVGIAKAKELVYTGKMIKAEEAKEIGLVNHVVPLASLQEEALKMAQQIAGNSTMGVQMSKVAINKGRNADLDTGLGLEILAWRNCFTHPDRQERMTAFVNKSKK
notes: Protein encoded by Nmar_1308 of Nitrosopumilus maritimus SCM1; codon-optimized gene construct from Genscript in pET28a (NdeI/BamHI); 229-237 residues modeled per chain in PDB 7EUM; Homohexamer (dimer of trimers) in the crystal; source: E. coli BL21(Rosetta-2), purified (Ni-NTA, thrombin cleavage, reverse Ni-NTA, Superdex 200); not shown: His6, N-terminal, cleaved
stoichiometry N: 6

Source: PMC8613188, “Structural insights into bifunctional thaumarchaeal crotonyl-CoA hydratase and 3-hydroxypropionyl-CoA dehydratase from Nitrosopumilus maritimus” (Scientific Reports, 2021)
